assay: soluble on expression in E. coli; label from the status in PepcDB or PDB records

Row | Sequence | soluble on expression in E. coli
1 | MGSDKIHHHHHHILPNDESQKLIVNALINANKTNNAIFLALSGYHEPQVVKNGIIHLYINNVLSETISECTYRPNNDSPLDYQNYFYQISSRFKTGDQVRIEVETKDGKYKANAEATVYEPIEIIKADTIESNHSLSETSESLWIYQATKWKIKLQTPTTNHSQYYRVNIKQTYTYRLTNRKTLQDSTAISTQWECSGYYDTALMDGKPGTPNNSDPIINFIPTINNYYNVFNDAYFTNNQYTMTLDSWYSFLLDNKLYKIKKITGKAIIQYYAISPAEYQYLRAANAYADHDSSNLLETPVIFPNNIKGGIGIFAIENPTETSIPLKSIEDY | not soluble
2 | MGSDKIHHHHHHMANALLQKWVERAERRALFWWQPKNGGVNMGDHLSKVIVSCVLALQDKTLLEKRDLRKKLIATGSVLHFAKDGDTVWGSGINGKIPAERNTFSTLDVRAVRGPKTRAFLLERGIAVPEVYGDPGLLTPMFFPADALGPVTKRPFAIVPHFNEPVEKYSAYAEHLVFPNVKPATFMSALLGAKFVISSSLHGLILAEAYGIPAVYLDWGNGEDRFKYDDYYHGTRRMQWHAGHSVEECMELGGNGSFDLERLQAGLLAAFPYDLW | not soluble
3 | MVENIPLAEEEHNKWHQDAVSLHLEFGIPRTAAEDIVQQCDVCQENKMPSTLRGSNKRGIDHWQVDYTHYEDKIILVWVETNSGLIYAERVKGETGQEFRVQTMKWYAMFAPKSLQSDNGPAFVAESTQLLMKYLGIEHTTGIPWNPQSQALVERTHQTLKNTLEKLIPMFNAFESALAGTLITLNIKRKGGLGTSPMDIFIFNKEQQRIQQQSKSKQE | soluble
4 | MSLKPTIYDIAKKANVSKSTVSRVLNNQPNISDKAKASVLQAIKELNYEPSKIARGLSGNGFDAILALSHRTSHTTYGNPFFSDVIQSISAVSEQNNFDLILQTAKTPEEELEKCAKKIQEKMIRGIIILSSTMDETLLFELDQYNIPIVVIGKVGNDYTNIYSVDTDNFQDSYDLVETLIKNGHRHIGCLHAPTEVYVSNDRLNGYRQCLFDHHLDIRNEWIIDGGFRLEDSMAAMNDLMKLRERPTAIFSTDALKSLSIYKVAEQSGKQIPDDLSIAGFSDPLLSSLFSPQLTRIDIPTNQLGIKATELLFQLIHHQYPEEKRIILSTEITLTDSIEGHHHHHH | not soluble
5 | MGSDKIHHHHHHMYQQVIDFIEHQKKIGALHPGDKLPSLRKLSRQFDISVPTVKQAYIELERQGQVCAKPQSGYYLQAMQARTLKPRPAKWAQCDPVEVQGRSMIEQVHAAVHLPNTVALGISNPIQAHPPDKALARLMRSVLSKVSEKAVSYGPVTGDAKLRMQLAFRYQDQGVETNPDDIVITNGAQEALSIALQCVAKRGDIIAIESPCFFGMIELIETLGMKALEVYTCTEDGVCVEDLAEAINQHDITACLFSTAINNPLGSMKTDEQRQAMVSLLEQHDIPLIEDEVYSEIYFTDNKPKPAQLYSEKGLVMTCSSFSKTAAPGYRIGWLLPGKFEEQAKRIKRAQSASTPMLQQWTLNEYLLSGDYDRHLCVLRKTLAYNCERMRALIAEHFPPEVCISKPLGGSVLWLRCQSHVKTGEFFQQALTQGVSFAPGAIFSPSGKYQNYMRVSYGVQWGEDVETAVKVLGQLVYEYTSKQKTAQLMEKQ | not soluble
6 | MTEVIAYLIEHFQDFDTCPPPEDLGMLLEEAGFDTMEIGNTLMMMEVLLNSSEFSAEPADSGALRVYSKEETDNLPQEVMGLMQYLIEEKAVSCEQREIIIHALMHIPGDEITVDTAKVLTLLLLWANKSELPVLVGDELMSALLLDNKPTMN | not soluble
7 | MGSDKIHHHHHHMNQYERKMLDLLKRGKQELGYVGVKAEFEAEGTRTDELLRLIELARKAGLNVGLKIGGCEAMRDLMESKQYGVEYIIAPMIESGYALSKFIDAKNKVYSKDEQRDTRFLFNVETKSAFGCMDELVQIAAQPGGADGVVFGRVDFSLSMGLTRDDINDPKVTSYCLEVSEACKRSGLDFVVGGGVSMDALSIMKELNSSHLSRFETRKIIFDAAMMENADVHNGLLQAVHFELLWLLNKREYYSCILKEDAKRIEMLERRWHVLSADEKASTSTYVNQPNI | not soluble
8 | MSTGVKANDVKTKTKGADLVVDCLIKQGVTHVFGIPGAKIDSVFDVLQERGPELIVCRHEQNAAFMAAAIGRLTGKPGVCLVTSGPGTSNLATGLVTANAESDPVVALAGAVPRTDRLKRTHQSMDNAALFEPITKYSVEVEHPDNVPEALSNAFRSATSTNPGATLVSLPQDVMTAETTVESIGALSKPQLGIAPTHDITYVVEKIKAAKLPVILLGMRASTNEVTKAVRALIADTELPVVETYQAAGAISRELEDHFFGRVGLFRNQPGDILLEEADLVISIGYDPIEYDPKFWNKLGDRTIIHLDDHQADIDHDYQPERELIGDIALTVNSIAERLPKLVLSTKSEAVLERLRAKLSEQAEVPNRDSEGVTHPLQVIRTLRSLISDDTTVTCDIGSHSIWMARCFRSYEPRRLLFSNGMQTLGVALPWAIAATLVEPGKKVVSVSGDGGFLFSAMELETAVRLNSPIVHLVWRDGTYDMVAFQQMMKYGRTSATEFGDVDLVKYAESFGATGLRVNTPDELEGVLKSALAADGPVIIDIPIDYRDNIKLSEKLLPNQLN | not soluble
9 | VKVSKECEKIDIILTDGVIILGKIKGQIDSKSLHEHEKKPFSQSGTMNPETSRLLVNLSRPKKEVLDPFVGTGSILIEARWLNYECIGSDLDKAMLQKTKINLNYFNYYCSLLFSSATNLPFRQITSIATDPPYGRSTKNKGAELTQLYEEFFSSASETLTKGGFLVFATDSRFNFIDKLKENSFIIKGLHYLYSHKSLTRAIYVVQKK | not soluble
10 | MGSDKIHHHHHHMLNAKLLKLPTAAQQHHHEHHQIVVGVRGQAELSIDGSGACLDTWKACLVPTEARHDYCGDQQNHVLVINVDPFCAALSTPLHSDYDKLMRLFEKPRTVQMDNRIQGLVQFAAGEFDRSPDNRALHQHLAASILHCMAERIVDRPPVSSNRNSLNPEDIRRYIVGNLHRKITVQDLAGVACLSVSRFHEIFRQVTGTTPHQFLLQTRLDQAVGLLSSTSLSVSEISYRTGFSSQSALTNALRKHRGITPSRLQLNEHVA | not soluble
11 | MSLSNFYKLLKEKFPRKEDIVTEMINLEAICQLPKGTEYFISDLHGEYDAVDYLLRTGAGSIRAKLLDCFDWQKIVAVDLDDFCILLYYPKEKLAFDKMNLSASAYKTKLWEMIPLQIQVLKYFSSKYTKSKVRKQLSGKFAYIIEELLAEIDRNPEKKSYFDTIIEKLFELDQVEDLIIVLSQTIQVLIIDHLHVVGDIYDRGRYPDRILNRLMAFPNLDIQWGNHDVTWMGAASGSYLCMVNVIRIAARYNNITLIEDRYGINLRRLVDYSRRYYEPLPSFVPILDGEEMTHPDELDLLNMIQQATAILQFKLEAQLIDRRPEFQMHNRQLINQVNYKDLSISIKEVVHQLKDFNSRCIDSKNPSRLTSEEEELLQQLMIAFQTSESLKKHIDFLFEKGSMYLTYNDNLLFHGCIPMHSNGDFKSFKIAGKTYGGRDLLDLFESQIRLAYARPEKHDDLATDIIWYLWCGENSSLFGKNAMTTFERYYVSDKVTHQERKNPYFKLRDKDDICTALLQEFDLPKFGHIVNGHTPVKEKNGEQPIKANGKMLVIDGGFAKGYQKNTGLAGYTLIYNSYGIQLISHLPFTSIEEVLSGTNYIIDTKRLVEEAKDRILVKDTTIGQKLTKEIKDLDHLYRHFQEYDEGHHHHHH | soluble
12 | MSLSEEKWAIITGADGGMGTEITRAVAEAGYHIIMACYRPSKAEPIRQRLVNETGNANMEVMAVDLSSMASTASFADRIVERHLPVSLLMNNAGTMETGLHITDDGFERTVSVNYLGPYLLTRKLLPALTCGARIVNMVSCTYAIGHLDFPDFFRQGRKGSFWRIPVYSNTKLALMLFTIELSERLREKGITVNAADPGIVSTDIITMHQWFDPLTDIFFRPFIRTPKKGASTAVGLLLDEAVAGVSGQLYASSHRKQLSEKYLCHVQQKQLWQETEQALERWLKEGHHHHHH | soluble
13 | MHRHVVTKVLPYTPDQLFELVGDVDAYPKFVPWITGMRTWNGRVDGAVSTVDAEAQVGFSFLREKFATRKRRDKDARSIDVSLLYGPFKRLNNGWRFMPEGDATRVEFVIEFAFKSALLDAMLAANVDRAAGKLIACFEARAQQLHGALEHHHHHH | soluble
14 | MKLKVTVNGAGKAGEGEIPAPLAGTVSKILVKEGDTVKAGQTVLVLEAMKMETEINAPTDGKVEKVLVKERDAVQGGQGLIKIG | soluble

Source: the DeepSol protein solubility set
